In paper PMC1807978:

Assays:
Assay in all cases: EMSA
[1] = biological target: T1, M.HpaII wild type (no zinc finger) (UniProt P15446)
T1 sequence: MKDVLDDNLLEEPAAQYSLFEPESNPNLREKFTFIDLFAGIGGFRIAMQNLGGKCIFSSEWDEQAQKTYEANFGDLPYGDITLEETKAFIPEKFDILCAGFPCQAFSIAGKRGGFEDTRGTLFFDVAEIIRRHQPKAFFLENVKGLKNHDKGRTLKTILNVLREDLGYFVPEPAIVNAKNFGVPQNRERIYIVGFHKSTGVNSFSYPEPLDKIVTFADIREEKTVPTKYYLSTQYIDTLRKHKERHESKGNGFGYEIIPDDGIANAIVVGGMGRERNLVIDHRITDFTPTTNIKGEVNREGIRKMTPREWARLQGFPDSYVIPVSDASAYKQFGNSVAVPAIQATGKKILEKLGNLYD

[2] = biological target: 4bFH (4bZf-M.HpaII F35H) (synthetic zinc finger; prokaryotic Mtase) (UniProt P15446)
[3] = biological target: 4cFH (4cZf-M.HpaII F35H) (synthetic zinc finger; prokaryotic Mtase) (UniProt P15446)

**Q.** For “TGGCCACGCCACTCCCCAGGCTCCATTCCAGGCCGGCGCAATGCTAGACTCGACGCGGCGCTCGTTGCCA (double strand) [Tb/c]”, which Kd [1] is on record?
**A.** 170 nM

**Q.** And the Kd [2]?
**A.** 38 nM

**Q.** And the Kd [3]?
**A.** 3 nM
